Experimental data as given in FireProtDB (doi:10.1002/pro.342).

Details: Escherichia coli, pH 6.3, CD, Phosphate 50 mM, NaCl 300 mM, whole UniProt chain shown

B1: Regulatory protein rop wild type, P03051 (protein)
chain: MTKQEKTALNMARFIRSQTLTLLEKLNELDADEQADICESLHDHADELYRSCLARFGDDGENL
Tm (Thermal): 70 °C | heat capacity change of unfolding (Thermal): 1.1 kcal/mol/K | unfolding enthalpy (van 't Hoff) (Thermal): 272 kJ/mol | denaturant m value (Urea): 2.1 kcal/mol/M | denaturant midpoint (higher = more stable) (Urea): 4.6 M | unfolding free energy (Urea): 66.9 kJ/mol
